# Test results taken from patent US20260098102A1 (NATIONAL UNIVERSITY CORPORATION KOBE UNIVERSITY, published 2026).
# Numbering of substitutions follows the chain as printed.
# B1: human chimeric anti-SIRPA antibody cD13 (antibody, human IgG4 S228P, kappa, F234A L235A, V domains shown)
# VH: EVQLVESGGGLVQPGRSLKLSCLASGFTFSDYGMIWVRQAPGKGLEWVASISSSSSYIYYADTVKGRFTISRENAKNTLFLHMTSLRSEDTALYYCARRYYGFNYPFDYWGQGVMVTVSS
# VL: DTVLTQSPALAVSLGQRVTISCGASKSVRTYMHWYQQKSGQQPKLLIYSASNLEAGVPSRFSGSGSGTDFTLTIDPVEADDIANYYCQQSNEPPYTFGAGTKLELKR
# notes: Human IgG4proFALA heavy chain, human kappa light chain; also called cD13 (IgG4pf); human chimeric antibody D13
# B2: humanized anti-SIRPA antibody hD13_H1L3 (antibody, human IgG4 S228P, kappa, F234A L235A, V domains shown)
# VH: QVQLVESGGGVVQPGRSLRLSCAASGFTFSDYGMIWVRQAPGKGLEWVASISSSSSYIYYADSVKGRFTISRDNSKNRLYLQMNSLRAEDTAVYYCARRYYGFNYPFDYWGQGTMVTVSS
# VL: DTQLTQSPSSLSASVGQRVTITCGASKSVRTYMHWYQQKPGKQPKLLIYSASNLEAGVPSRFSGSGSGTDFTLTISSLQPEDFATYYCQQSNEPPYTFGQGTKLEIKR
# notes: hH1 heavy chain (IgG4proFALA) and hL3 kappa light chain; also called hD13_HIL3; HIL3 antibody
# B3: humanized anti-SIRPA antibody hD13_H2L2 (antibody, human IgG4 S228P, kappa, F234A L235A, V domains shown)
# VH: B2 VH with Q1E, R78T
# VL: B2 VL with D1A, T2I, Q43A
# notes: hH2 heavy chain (IgG4proFALA) and hL2 kappa light chain; also called H2L2 antibody
# B4: humanized anti-SIRPA antibody hD13_H1L4 (antibody, human IgG4 S228P, kappa, F234A L235A, V domains shown)
# VH: B2 VH
# VL: DTVLTQSPDSLAVSLGQRATINCGASKSVRTYMHWYQQKPGQQPKLLIYSASNLEAGVPSRFSGSGSGTDFTLTISSLQAEDVAVYYCQQSNEPPYTFGQGTKVEIKR
# notes: hH1 heavy chain (IgG4proFALA) and hL4 kappa light chain; also called hD13_HIL4; hD13_HIL4h
# B5: humanized anti-SIRPA antibody hD13_H2L3 (antibody, human IgG4 S228P, kappa, F234A L235A, V domains shown)
# VH: B2 VH with Q1E, R78T
# VL: B2 VL
# notes: hH2 heavy chain (IgG4proFALA) and hL3 kappa light chain; also called H2L3 antibody
# Assays:
# [1] = biological target: T1, monkey SIRPA protein (cynomolgus monkey, UniProt P78324 31-504 (human entry)); test: cell-based ELISA on 293α cells expressing FLAG-tagged monkey SIRPA; Abs 490 normalized to FLAG tag
# T1 construct: Expressed on 293α cells from pcDNA3.2 V5-DEST or pFLAG V5-DEST vectors; also called cynomolgus monkey SIRPA; cSIRPA
# T1 chain: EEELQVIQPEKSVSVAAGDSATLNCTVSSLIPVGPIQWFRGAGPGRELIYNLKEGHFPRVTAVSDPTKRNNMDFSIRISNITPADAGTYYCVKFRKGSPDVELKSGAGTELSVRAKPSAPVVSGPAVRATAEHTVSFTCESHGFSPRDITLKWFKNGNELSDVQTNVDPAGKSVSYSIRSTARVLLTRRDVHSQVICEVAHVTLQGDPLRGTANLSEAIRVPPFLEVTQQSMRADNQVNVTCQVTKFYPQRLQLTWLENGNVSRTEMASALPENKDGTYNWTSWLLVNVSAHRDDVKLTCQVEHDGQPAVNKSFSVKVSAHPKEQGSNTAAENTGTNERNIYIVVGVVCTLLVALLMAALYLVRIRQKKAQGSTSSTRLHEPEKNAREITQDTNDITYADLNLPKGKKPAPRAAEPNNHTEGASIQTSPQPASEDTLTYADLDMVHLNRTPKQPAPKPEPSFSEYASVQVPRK
# [2] = biological target: T2, mouse SIRPA variant hmSIRPA_Δ2 (mouse (with human residues), UniProt P97797 35-513); test: cell-based ELISA on 293α cells expressing FLAG-tagged hmSIRPA_Δ2; Abs 490 normalized to FLAG tag [iii]
# T2 construct: FLAG-tagged (pFLAG V5-DEST), on 293α cells; also called hmSIRPA_Δ42 [sic]
# T2 chain: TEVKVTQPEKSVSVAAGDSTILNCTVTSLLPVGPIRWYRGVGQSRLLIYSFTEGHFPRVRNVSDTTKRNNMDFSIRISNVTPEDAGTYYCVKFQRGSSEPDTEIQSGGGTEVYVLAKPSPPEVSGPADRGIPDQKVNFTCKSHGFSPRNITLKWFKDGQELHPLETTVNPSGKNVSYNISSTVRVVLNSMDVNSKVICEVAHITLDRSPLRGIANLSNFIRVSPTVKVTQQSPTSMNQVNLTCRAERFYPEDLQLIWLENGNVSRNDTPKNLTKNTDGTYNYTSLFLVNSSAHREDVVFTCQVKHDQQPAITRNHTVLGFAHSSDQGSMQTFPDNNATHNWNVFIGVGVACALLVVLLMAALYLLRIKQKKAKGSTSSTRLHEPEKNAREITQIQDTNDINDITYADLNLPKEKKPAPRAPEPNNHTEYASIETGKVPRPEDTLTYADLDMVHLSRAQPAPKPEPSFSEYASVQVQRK
# Experimental: After the culture supernatant of 293α cells into which the pFLAG V5-DEST-hmSIRPA_Δ0, Δ1, and Δ2 expression vector prepared in 2)-1-2-2 was introduced and the pFLAG V5-DEST-introduced 293α cells was removed, 50 μL per well of four different D13 humanized anti-human SIRPA antibodies and a chimeric anti-human SIRPA antibody diluted with 5% FBS-containing PBS to a final concentration of 10,000 ng/mL were added to these cells, and the mixture was allowed to stand at 4° C. for one hour. Further, 50 μL per well of an anti-FLAG M2 antibody (SIGMA) diluted with 5% FBS-containing PBS to a final concentration of 10,000 ng/mL was added to a well for detecting expression of each SIRPA construct, and the mixture was allowed to stand at 4° C. for one hour. Thereafter, binding to each construct was evaluated in the same manner as in the evaluation of the binding activity of the human SIRPA. Binding of anti-human SIRPA antibodies to each construct was standardized by expression of the FLAG tag.
# [3] = biological target: T3, SIRPA_V2_IgV (human); test: SPR Biacore T200, antibody captured on anti-human IgG (Fc), SIRPA_V2_IgV as analyte (0.25 to 16 nM), 1:1 model
# T3 construct: Secreted recombinant protein; The crystal model held residues 33 to 143 of human SIRPA Variant 2
# T3 sequence (chain, as listed by the source limits assumed): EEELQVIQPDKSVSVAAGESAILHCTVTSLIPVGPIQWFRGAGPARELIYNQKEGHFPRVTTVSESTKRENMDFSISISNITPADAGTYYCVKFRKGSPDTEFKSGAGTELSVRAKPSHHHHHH
# Experimental: The dissociation constants were measured by a capture method comprising capturing each antibody as a ligand to an Anti-Human IgG (Fc) antibody immobilized using Human Antibody Capture Kit (GE Healthcare Bioscience Corp.) and measuring an antigen as an analyte, using Biacore T200 (GE Healthcare Bioscience Corp.). HBS-EP+ (GE Healthcare Bioscience Corp.) was used as a running buffer, and CM5 (GE Healthcare Bioscience Corp.) was used as a sensor chip. Onto the chip, 2 μg/mL of various antibodies were added at 10 μL/min for 30 seconds, then a serially diluted solution (0.25 to 16 nM) of the human SIRPA protein as an antigen was added at a flow rate of 30 μL/min for 120 seconds, and subsequently the dissociation phase for 600 seconds was monitored. As a regenerant, 3 M magnesium chloride (GE Healthcare Bioscience Corp.) was added at a flow rate of 20 μL/min for 30 seconds. For data analysis, a binding rate constant (ka), a dissociation rate constant (kd), and a dissociation constant (KD; KD=kd/ka) were calculated using a 1:1 binding model.
# [4] = biological target: T4, human SIRPA_V2 protein (human, UniProt P78324 31-504); test: blocking cell-based ELISA: peroxidase-labeled CD47-Fc (1 µg/mL) on 293α cells expressing SIRPA_V2
# T4 construct: Expressed on 293α cells from pcDNA3.2 V5-DEST or pFLAG V5-DEST (FLAG-tagged) vectors; also called human SIRPA Variant 2; ECD variant (full-length, amino acids 1 to 504)
# T4 sequence (P78324 other isoform, or with tags, fused parts or gaps limits assumed): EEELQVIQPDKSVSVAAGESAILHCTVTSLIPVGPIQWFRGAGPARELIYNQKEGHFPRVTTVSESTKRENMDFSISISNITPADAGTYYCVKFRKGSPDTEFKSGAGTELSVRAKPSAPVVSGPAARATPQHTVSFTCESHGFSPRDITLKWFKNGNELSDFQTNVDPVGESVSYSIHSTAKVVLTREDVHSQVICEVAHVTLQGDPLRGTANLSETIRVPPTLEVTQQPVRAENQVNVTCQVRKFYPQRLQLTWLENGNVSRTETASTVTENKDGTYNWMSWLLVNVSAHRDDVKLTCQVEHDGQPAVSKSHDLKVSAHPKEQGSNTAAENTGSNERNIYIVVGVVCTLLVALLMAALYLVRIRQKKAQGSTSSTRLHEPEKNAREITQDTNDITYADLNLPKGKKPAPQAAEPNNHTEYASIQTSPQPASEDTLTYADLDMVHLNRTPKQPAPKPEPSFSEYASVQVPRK
# Experimental: After the culture supernatant of the human SIRPA_V1 or V2 expression vector-introduced 293 cells prepared in Example 9)-1 was removed, 50 μL per well of various anti-SIRPA antibodies or various control Human IgG diluted with 5% FBS-containing PBS to a final concentration of 0 to 10,000 ng/ml was added to each of pcDNA3.2 V5-DEST-SIRPA_V1 or V2-introduced 293α cells, immediately followed by addition of 50 µL per well of peroxidase-labeled CD47-Fc prepared with 5% FBS-containing PBS at 1 μg/mL, and the mixture was allowed to stand at 4° C. for one hour. Thereafter, the SIRPA-CD47 binding inhibitory activity was evaluated in the same manner as in 1)-6-3.
Binder,EC50 (read off the curve) [1] [µg/mL],binding result [2],Kd [3] [nM],IC50 [4] [µg/mL]
B1,~0.1,no binding (tested: 10000 ng/mL),,
B2,,no binding (tested: 10000 ng/mL),1.17,1.3
B3,,no binding (tested: 10000 ng/mL),,
B4,,no binding (tested: 10000 ng/mL),,
B5,,no binding (tested: 10000 ng/mL),,
